Target: KPNA4 (UniProt O00629)
Assay: pull-down/IP from co-transfected cells
Conditions: reference: IRF3 wild type; sites S97

## IRF3 (from UniProt Q14653) IRF3 S97A
  binding against the reference: stronger
